From patent publication US20080194019

Assays:
[1] = tested on: MBP-AMPKa (1-312) bacterial fusion protein
FLAG-tagged tuberin = FLAG-tagged tuberin (UniProt P49815)
Sequence of FLAG-tagged tuberin (P49815 whole entry): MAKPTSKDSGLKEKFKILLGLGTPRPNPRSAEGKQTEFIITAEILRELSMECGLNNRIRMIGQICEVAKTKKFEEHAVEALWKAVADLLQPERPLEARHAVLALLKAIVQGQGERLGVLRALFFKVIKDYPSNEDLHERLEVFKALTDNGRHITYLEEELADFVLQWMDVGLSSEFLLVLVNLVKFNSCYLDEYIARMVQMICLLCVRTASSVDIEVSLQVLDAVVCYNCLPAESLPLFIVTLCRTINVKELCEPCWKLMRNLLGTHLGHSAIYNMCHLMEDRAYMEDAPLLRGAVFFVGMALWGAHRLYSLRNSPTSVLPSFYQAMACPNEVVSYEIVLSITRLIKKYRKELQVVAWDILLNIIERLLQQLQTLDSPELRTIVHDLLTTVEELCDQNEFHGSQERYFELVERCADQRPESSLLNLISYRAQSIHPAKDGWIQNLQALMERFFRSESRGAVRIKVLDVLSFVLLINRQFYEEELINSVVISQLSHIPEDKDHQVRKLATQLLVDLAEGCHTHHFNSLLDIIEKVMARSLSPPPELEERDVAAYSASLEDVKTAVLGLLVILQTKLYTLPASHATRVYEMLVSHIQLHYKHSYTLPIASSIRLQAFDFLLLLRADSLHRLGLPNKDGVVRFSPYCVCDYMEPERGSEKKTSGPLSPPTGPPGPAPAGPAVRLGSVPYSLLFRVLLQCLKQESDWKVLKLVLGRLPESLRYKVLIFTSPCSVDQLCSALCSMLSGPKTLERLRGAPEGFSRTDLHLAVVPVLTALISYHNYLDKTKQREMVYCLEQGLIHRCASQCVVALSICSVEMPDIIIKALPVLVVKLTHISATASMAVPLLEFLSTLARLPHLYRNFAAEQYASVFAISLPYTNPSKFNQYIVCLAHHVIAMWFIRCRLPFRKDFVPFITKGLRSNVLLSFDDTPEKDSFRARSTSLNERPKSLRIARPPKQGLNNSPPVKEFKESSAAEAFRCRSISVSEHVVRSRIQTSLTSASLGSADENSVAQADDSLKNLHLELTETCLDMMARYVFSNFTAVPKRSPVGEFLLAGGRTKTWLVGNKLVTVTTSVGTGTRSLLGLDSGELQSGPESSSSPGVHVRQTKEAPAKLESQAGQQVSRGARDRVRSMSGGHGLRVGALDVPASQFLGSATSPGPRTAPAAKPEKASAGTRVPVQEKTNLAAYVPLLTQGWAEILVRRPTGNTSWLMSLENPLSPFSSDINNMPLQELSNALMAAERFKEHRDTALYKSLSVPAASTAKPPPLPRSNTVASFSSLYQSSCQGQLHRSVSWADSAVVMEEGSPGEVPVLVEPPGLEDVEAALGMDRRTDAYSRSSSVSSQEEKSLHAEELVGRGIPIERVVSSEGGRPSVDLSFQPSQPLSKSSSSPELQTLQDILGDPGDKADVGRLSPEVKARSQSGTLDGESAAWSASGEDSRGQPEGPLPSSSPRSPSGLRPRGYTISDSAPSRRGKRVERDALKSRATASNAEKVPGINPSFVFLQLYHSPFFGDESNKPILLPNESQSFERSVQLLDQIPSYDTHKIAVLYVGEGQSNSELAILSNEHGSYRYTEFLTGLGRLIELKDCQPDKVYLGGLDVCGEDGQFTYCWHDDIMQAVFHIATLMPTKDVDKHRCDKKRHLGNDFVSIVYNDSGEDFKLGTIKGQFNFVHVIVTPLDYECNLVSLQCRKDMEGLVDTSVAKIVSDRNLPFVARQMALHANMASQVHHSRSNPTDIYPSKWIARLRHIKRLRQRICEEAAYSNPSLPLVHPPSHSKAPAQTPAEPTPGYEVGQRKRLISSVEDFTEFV

With “Kinase-inactive LKB1 (K78I) coexpressed with STRAD, Flag immunoprecipitate” the “AMPK kinase activity towards the SAMS peptide after in vitro kinase reaction with LKB1” value [1] was “Kinase-inactive LKB1 alone or coexpressed with STRAD was unable to activate AMPK”.
For “Active recombinant Akt (Upstate Biotechnology)”, the “in vitro phosphorylation of tuberin; mobility shift on low percentage SDS-PAGE” value (FLAG-tagged tuberin) was “This mobility shift in tuberin was not observed when tuberin was phosphorylated by active recombinant Akt, even at levels of tuberin phosphorylation comparable to those induced by AMPK”.
For “MBP-AMPKa (1-312) bacterial fusion protein”, the “phosphorylation of the SAMS peptide by unphosphorylated MBP-AMPK” value (SAMS peptide) was “bacterial MBP-AMPK is inactive towards the peptide” and the “in vitro phosphorylation of FLAG-tagged tuberin by recombinant AMPK pre-activated with wild-type LKB1” value (FLAG-tagged tuberin) was “AMPK activated by wild-type LKB1 directly phosphorylated tuberin in vitro”.
With “Active recombinant AMPK (Upstate Biotechnology)” the “in vitro phosphorylation of tuberin; mobility shift on low percentage SDS-PAGE” value (FLAG-tagged tuberin) was “when tuberin was stoichiometrically phosphorylated by AMPK, it underwent a mobility shift”.
